Columns and labels:
GST-IFT27 [1] = biological target: T1, GST-IFT27 (Chlamydomonas reinhardtii …, UniProt A8HN58); experiment: pull-down (GST and amylose resin)
T1 chain: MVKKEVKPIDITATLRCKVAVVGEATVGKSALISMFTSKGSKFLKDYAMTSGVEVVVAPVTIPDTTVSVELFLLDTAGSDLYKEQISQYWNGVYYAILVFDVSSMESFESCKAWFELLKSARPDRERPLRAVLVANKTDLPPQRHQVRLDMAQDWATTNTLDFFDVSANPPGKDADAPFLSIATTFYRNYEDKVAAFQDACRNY

GST-IFT27 [2] = biological target: T2, GST-IFT27 (Chlamydomonas reinhardtii, UniProt A8HN58 1-204); experiment: pull-down; GST-IFT27 (~2 ug) on Glutathione Sepharose 4B beads, incubated 1 hour with MBP-IFT25 (~2 ug), MBP-IFT25 plus MBP, or MBP (2 ug); 1xHMDEK, 4 C; supernatant and pellet on SDS-PAGE, Coomassie and immunoblot; details: both partners purified
T2 construct: IFT27, Rab-like small GTPase component of IFT complex B, Chlamydomonas reinhardtii; also called GST-tagged IFT27; source: E. coli BL21 (DE3) pLysE, pGEX-2T-IFT27, purified (Glutathione Sepharose 4B, eluted with reduced glutathione)
T2 sequence (looked up): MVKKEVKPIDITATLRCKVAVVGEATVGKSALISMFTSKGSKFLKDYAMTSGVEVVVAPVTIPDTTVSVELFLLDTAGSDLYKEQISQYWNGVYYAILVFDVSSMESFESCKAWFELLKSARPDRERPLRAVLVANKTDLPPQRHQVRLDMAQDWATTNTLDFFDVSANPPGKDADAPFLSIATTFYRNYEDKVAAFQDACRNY

- binding result (GST-IFT27 [1]): binds
- binding result (GST-IFT27 [2]): binds
B1: MBP-IFT25 (natural protein, Chlamydomonas reinhardtii, UniProt B8LIX8 1-189, looked up)
chain: MKDYAREENGGLVVMASCSDERFPPENMLDGKDNTFWVTTGMFPQEFVLRLESCIRVSKITTLSLNVRKLAVEKCDQDKPDQFEKVFEVELANRGDRLQTEVHQVNIRAKYLKFILLQGHGEFATVNRVSVVGGDDDGGGYDEPGGGYGSMQRQPSMGYGGGGGSAATGFAADPGNAAAGGGGGFEDEF
notes: IFT25 (Flagellar Associated Protein FAP232) of Chlamydomonas reinhardtii; cDNA of 570 nucleotides, predicted about 20 kD; the 3' end of the FAP232 gene model was predicted incorrectly, the corrected cDNA is GenBank EF593953; Details of vector construction are 'available upon request'; also called MBP-tagged IFT25; FAP232; source: E. coli BL21 (DE3) pLysE, pMAL-c2-IFT25, purified (amylose resin, …)
